The target of assay [1] is T1, GST–eEF2K[1–402]–His6 (human, UniProt O00418 1-402).
T1 sequence: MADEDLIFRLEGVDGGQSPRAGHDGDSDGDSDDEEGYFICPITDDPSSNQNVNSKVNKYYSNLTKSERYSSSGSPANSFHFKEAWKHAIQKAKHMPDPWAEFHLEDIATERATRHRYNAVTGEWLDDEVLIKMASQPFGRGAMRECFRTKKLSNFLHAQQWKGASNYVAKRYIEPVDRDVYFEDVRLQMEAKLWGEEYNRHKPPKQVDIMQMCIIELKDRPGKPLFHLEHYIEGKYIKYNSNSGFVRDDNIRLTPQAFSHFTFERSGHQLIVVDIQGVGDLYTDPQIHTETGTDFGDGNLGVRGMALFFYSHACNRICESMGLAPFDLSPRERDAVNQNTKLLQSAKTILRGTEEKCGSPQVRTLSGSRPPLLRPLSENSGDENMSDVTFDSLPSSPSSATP
In words: ELISA.

For assay [2], the target named is T2, His6–Zb–eEF2K[48–336] (human, UniProt O00418 48-336).
T2 sequence: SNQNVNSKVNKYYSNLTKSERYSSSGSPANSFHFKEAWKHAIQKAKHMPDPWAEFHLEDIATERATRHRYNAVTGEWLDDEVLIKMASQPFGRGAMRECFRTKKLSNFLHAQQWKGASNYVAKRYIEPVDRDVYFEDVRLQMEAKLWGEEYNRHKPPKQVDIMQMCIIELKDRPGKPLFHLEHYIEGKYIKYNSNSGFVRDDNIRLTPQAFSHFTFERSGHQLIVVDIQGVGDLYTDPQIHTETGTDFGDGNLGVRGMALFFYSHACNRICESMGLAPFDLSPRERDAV
In words: pull-down.

Assay [3] deals with T3, eEF2K[48–336] (human, UniProt O00418 48-336).
T3 sequence: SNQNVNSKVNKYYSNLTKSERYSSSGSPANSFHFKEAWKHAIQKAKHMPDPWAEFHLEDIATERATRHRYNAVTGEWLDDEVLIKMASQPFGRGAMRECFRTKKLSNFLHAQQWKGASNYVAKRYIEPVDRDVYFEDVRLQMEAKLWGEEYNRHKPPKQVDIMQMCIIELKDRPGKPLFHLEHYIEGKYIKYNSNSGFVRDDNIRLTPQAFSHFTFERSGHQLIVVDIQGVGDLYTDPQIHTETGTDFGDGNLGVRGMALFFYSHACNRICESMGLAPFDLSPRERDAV
In words: SEC.

B1: GST–eEF2K[478–725] (domain or fragment)
chain: SGRVCVEKWNLLNSSRLHLPRASAVALEVQRLNALDLEKKIGKSILGKVHLAMVRYHEGGRFCEKGEEWDQESAVFHLEHAANLGELEAIVGLGLMYSQLPHHILADVSLKETEENKTKGFDYLLKAAEAGDRQSMILVARAFDSGQNLSPDRCQDWLEALHWYNTALEMTDCDEGGEYDGMQDEPRYMMLAREAEMLFTGGYGLEKDPQRSGDLYTQAAEAAMEAMKGRLANQYYQKAEEAWAQMEE
Turning to B1, the binding result in assay [1] is “binds”.

B2: His6–eEF2K[490–725] (domain or fragment)
chain: NSSRLHLPRASAVALEVQRLNALDLEKKIGKSILGKVHLAMVRYHEGGRFCEKGEEWDQESAVFHLEHAANLGELEAIVGLGLMYSQLPHHILADVSLKETEENKTKGFDYLLKAAEAGDRQSMILVARAFDSGQNLSPDRCQDWLEALHWYNTALEMTDCDEGGEYDGMQDEPRYMMLAREAEMLFTGGYGLEKDPQRSGDLYTQAAEAAMEAMKGRLANQYYQKAEEAWAQMEE
In the case of B2, the binding result in assay [2] was “binds”.

B3: eEF2K[490–725] (domain or fragment)
chain: NSSRLHLPRASAVALEVQRLNALDLEKKIGKSILGKVHLAMVRYHEGGRFCEKGEEWDQESAVFHLEHAANLGELEAIVGLGLMYSQLPHHILADVSLKETEENKTKGFDYLLKAAEAGDRQSMILVARAFDSGQNLSPDRCQDWLEALHWYNTALEMTDCDEGGEYDGMQDEPRYMMLAREAEMLFTGGYGLEKDPQRSGDLYTQAAEAAMEAMKGRLANQYYQKAEEAWAQMEE
In the case of B3, the binding result in assay [3] is given as “binds”.

The values are drawn from article PMC3268225 (Biochemical Journal, 2011).
